This note sets out measurements from patent US20180071403A1 (Daiichi Sankyo, published 2018).

In test [1] the target is T1, CD30 (UniProt P28908 19-595, limits assumed).
T1 sequence (looked up): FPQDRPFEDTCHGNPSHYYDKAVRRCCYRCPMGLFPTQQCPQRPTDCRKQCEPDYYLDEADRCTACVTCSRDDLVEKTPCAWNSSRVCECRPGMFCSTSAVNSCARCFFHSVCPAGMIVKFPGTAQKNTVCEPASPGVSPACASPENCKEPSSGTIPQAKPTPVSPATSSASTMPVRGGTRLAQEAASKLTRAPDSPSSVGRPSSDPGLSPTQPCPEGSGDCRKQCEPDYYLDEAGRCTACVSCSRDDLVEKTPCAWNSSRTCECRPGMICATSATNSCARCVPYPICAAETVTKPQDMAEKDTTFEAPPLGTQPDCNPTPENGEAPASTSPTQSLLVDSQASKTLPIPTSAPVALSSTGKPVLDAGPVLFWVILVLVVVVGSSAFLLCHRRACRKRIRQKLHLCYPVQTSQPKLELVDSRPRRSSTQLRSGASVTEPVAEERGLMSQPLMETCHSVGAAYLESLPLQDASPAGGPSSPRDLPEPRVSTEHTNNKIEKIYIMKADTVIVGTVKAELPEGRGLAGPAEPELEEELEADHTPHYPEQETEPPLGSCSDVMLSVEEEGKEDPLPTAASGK
Nature of the test: cell-based or functional assay.

Test [2] has as its target T2, human B7-H3 variant 1 (human, UniProt Q5ZPR3 27-534).
T2 construct: also called 4Ig-B7-H3
T2 sequence: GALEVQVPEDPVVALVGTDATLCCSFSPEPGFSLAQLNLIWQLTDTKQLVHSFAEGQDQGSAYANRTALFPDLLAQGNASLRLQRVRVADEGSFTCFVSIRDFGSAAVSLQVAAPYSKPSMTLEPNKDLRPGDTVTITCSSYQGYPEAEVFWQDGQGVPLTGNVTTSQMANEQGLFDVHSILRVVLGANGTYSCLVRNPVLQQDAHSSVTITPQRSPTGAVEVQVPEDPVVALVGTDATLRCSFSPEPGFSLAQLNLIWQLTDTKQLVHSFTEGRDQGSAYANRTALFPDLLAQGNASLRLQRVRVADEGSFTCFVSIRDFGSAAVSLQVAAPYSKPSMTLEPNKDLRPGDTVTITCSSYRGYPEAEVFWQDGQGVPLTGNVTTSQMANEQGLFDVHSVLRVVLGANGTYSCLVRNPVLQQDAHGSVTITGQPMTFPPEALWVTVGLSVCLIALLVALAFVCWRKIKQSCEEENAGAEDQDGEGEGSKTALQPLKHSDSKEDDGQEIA
Nature of the test: flow cytometry, M30 at 10 µg/mL on CCRF-CEM clones transfected with B7-H3 variant 1, fluorescein-labelled anti-mouse IgG.
Description: Flow cytometry was used for confirming B7-H3 expression in each recovered clone. Specifically, each recovered clone was washed twice with PBS containing 5% FBS, thereafter suspended by the addition of PBS containing 5% FBS and 10 μg/mL M30, and left standing at 4° C. for 30 minutes. […] The clone was washed twice with PBS containing 5% FBS, thereafter resuspended in PBS containing 5% FBS, and detected by using a flow cytometer (FC500: Beckman Coulter, Inc.).

Test [3] concerns the target CD33 (UniProt P20138 18-364, limits assumed). Nature of the test: cell-based or functional assay.
The target in test [4] is T2, human B7-H3 variant 1. The test can be described thus: cell-based or functional assay.

Bounds are passed on as bounds.

Chain of CD33 (P20138 18-364 limits assumed): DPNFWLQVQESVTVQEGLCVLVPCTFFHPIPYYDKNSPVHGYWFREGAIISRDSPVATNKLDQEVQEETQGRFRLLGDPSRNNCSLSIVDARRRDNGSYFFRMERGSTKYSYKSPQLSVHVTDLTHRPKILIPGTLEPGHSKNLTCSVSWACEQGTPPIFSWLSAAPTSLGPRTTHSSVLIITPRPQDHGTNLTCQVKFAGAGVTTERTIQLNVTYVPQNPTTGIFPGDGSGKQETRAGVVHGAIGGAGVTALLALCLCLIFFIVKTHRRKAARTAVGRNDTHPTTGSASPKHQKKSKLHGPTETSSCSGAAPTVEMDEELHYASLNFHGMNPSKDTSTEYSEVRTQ

B1: Antibody-drug conjugate (7) (antibody, V domains shown)
VH: QIQLQQSGPEVVKPGASVKISCKASGYTFTDYYITWVKQKPGQGLEWIGWIYPGSGNTKYNEKFKGKATLTVDTSSSTAFMQLSSLTSEDTAVYFCANYGNYWFAYWGQGTQVTVSA
VL: DIVLTQSPASLAVSLGQRATISCKASQSVDFDGDSYMNWYQQKPGQPPKVLIYAASNLESGIPARFSGSGSGTDFTLNIHPVEEEDAATYYCQQSNQDPWTFGGGTKLEIKR
modifications: drug-linker -(Succinimid-3-yl-N)-CH2CH2CH2CH2CH2-C(=O)-DGGFG-NH-CH2CH2CH2-C(=O)-(NH-DX) (exatecan) bound by thioether at reduced hinge disulfide cysteines (positions not given); average 4.6 drug molecules per antibody
As to B1, the “IC50, anticellular effect (cell growth inhibition, CellTiter-Glo) on SR cells” value in test [1] was below 0.01 nM.

B2: Antibody-drug conjugate (24) (antibody, V domains shown)
VH: QIQLQQSGPEVVKPGASVKISCKASGYTFTDYYITWVKQKPGQGLEWIGWIYPGSGNTKYNEKFKGKATLTVDTSSSTAFMQLSSLTSEDTAVYFCANYGNYWFAYWGQGTQVTVSA
VL: DIVLTQSPASLAVSLGQRATISCKASQSVDFDGDSYMNWYQQKPGQPPKVLIYAASNLESGIPARFSGSGSGTDFTLNIHPVEEEDAATYYCQQSNQDPWTFGGGTKLEIKR
modifications: drug-linker -(Succinimid-3-yl-N)-CH2CH2CH2CH2CH2-C(=O)-DGGFG-(NH-DX) (exatecan) bound by thioether at reduced hinge disulfide cysteines (positions not given); average 2.9 drug molecules per antibody
Turning to B2, the “IC50, anticellular effect (cell growth inhibition, CellTiter-Glo) on SR cells” value in test [1] was below 0.01 nM.

B3: Antibody-drug conjugate (8) (antibody, V domains shown)
VH: QIQLQQSGPEVVKPGASVKISCKASGYTFTDYYITWVKQKPGQGLEWIGWIYPGSGNTKYNEKFKGKATLTVDTSSSTAFMQLSSLTSEDTAVYFCANYGNYWFAYWGQGTQVTVSA
VL: DIVLTQSPASLAVSLGQRATISCKASQSVDFDGDSYMNWYQQKPGQPPKVLIYAASNLESGIPARFSGSGSGTDFTLNIHPVEEEDAATYYCQQSNQDPWTFGGGTKLEIKR
modifications: drug-linker -(Succinimid-3-yl-N)-CH2CH2CH2CH2CH2-C(=O)-DGGFG-NH-CH2CH2CH2-C(=O)-(NH-DX) (exatecan) bound by thioether at reduced hinge disulfide cysteines (positions not given); average 7.9 drug molecules per antibody
For B3, in test [1], the “IC50, anticellular effect (cell growth inhibition, CellTiter-Glo) on SR cells” value was below 0.01 nM.

B4: Antibody-drug conjugate (25) (antibody, V domains shown)
VH: QIQLQQSGPEVVKPGASVKISCKASGYTFTDYYITWVKQKPGQGLEWIGWIYPGSGNTKYNEKFKGKATLTVDTSSSTAFMQLSSLTSEDTAVYFCANYGNYWFAYWGQGTQVTVSA
VL: DIVLTQSPASLAVSLGQRATISCKASQSVDFDGDSYMNWYQQKPGQPPKVLIYAASNLESGIPARFSGSGSGTDFTLNIHPVEEEDAATYYCQQSNQDPWTFGGGTKLEIKR
modifications: drug-linker -(Succinimid-3-yl-N)-CH2CH2CH2CH2CH2-C(=O)-DGGFG-(NH-DX) (exatecan) bound by thioether at reduced hinge disulfide cysteines (positions not given); average 4.8 drug molecules per antibody
As for B4, the “IC50, anticellular effect (cell growth inhibition, CellTiter-Glo) on SR cells” value in test [1] was below 0.01 nM.

B5: M30 antibody (antibody, mouse IgG2a, kappa, V domains shown)
VH: EVQLQQSGPELVKPGASVKMSCKASGYTFTNYVMHWVKQKPGQGLEWIGYINPYNDDVKYNEKFKGKATQTSDKSSSTAYMELSSLTSEDSAVYYCARWGYYGSPLYYFDYWGQGTTLTVSS
VL: QIVLSQSPTILSASPGEKVTMTCRASSRLIYMHWYQQKPGSSPKPWIYATSNLASGVPARFSGSGSGTSYSLTISRVEAEDAATYYCQQWNSNPPTFGTGTKLELKR
notes: Mouse monoclonal anti-B7-H3 antibody from hybridoma M30
B5: the binding result in test [2] is recorded as “binds”.

B6: Antibody-drug conjugate (10) (antibody, V domains shown)
VH: EVQLVQSGAEVKKPGSSVKVSCKASGYTITDSNIHWVRQAPGQSLEWIGYIYPYNGGTDYNQKFKNRATLTVDNPTNTAYMELSSLRSEDTAFYYCVNGNPWLAYWGQGTLVTVSS
VL: DIQLTQSPSTLSASVGDRVTITCRASQSLDNYGIRFLTWFQQKPGKAPKLLMYAASNQGSGVPSRFSGSGSGTEFTLTISSLQPDDFATYYCQQTKEVPWSFGQGTKVEVKR
modifications: drug-linker -(Succinimid-3-yl-N)-CH2CH2CH2CH2CH2-C(=O)-DGGFG-NH-CH2CH2CH2-C(=O)-(NH-DX) (exatecan) bound by thioether at reduced hinge disulfide cysteines (positions not given); average 6.6 drug molecules per antibody
Take B6: the “IC50, cytotoxic effect (cell growth inhibition, CellTiter-Glo) on HL-60 cells” value in test [3] was below 1 nM.

B7: Antibody-drug conjugate (6) (antibody, human IgG1, kappa, V domains shown)
VH: QVQLVQSGAEVKKPGSSVKVSCKASGYTFTNYVMHWVRQAPGQGLEWMGYINPYNDDVKYNEKFKGRVTITADESTSTAYMELSSLRSEDTAVYYCARWGYYGSPLYYFDYWGQGTLVTVSS
VL: EIVLTQSPATLSLSPGERATLSCRASSRLIYMHWYQQKPGQAPRPLIYATSNLASGIPARFSGSGSGTDFTLTISSLEPEDFAVYYCQQWNSNPPTFGQGTKVEIKR
modifications: drug-linker -(Succinimid-3-yl-N)-CH2CH2CH2CH2CH2-C(=O)-DGGFG-NH-CH2CH2CH2-C(=O)-(NH-DX) (exatecan) bound by thioether at reduced hinge disulfide cysteines (positions not given); average 6.2 drug molecules per antibody
As to B7, the “IC50, anticellular effect (cell growth inhibition, CellTiter-Glo) on CEM_V1_3.1_2 cells” value in test [4] is below 0.1 nM.

B8: Antibody-drug conjugate (23) (antibody, human IgG1, kappa, V domains shown)
VH: QVQLVQSGAEVKKPGSSVKVSCKASGYTFTNYVMHWVRQAPGQGLEWMGYINPYNDDVKYNEKFKGRVTITADESTSTAYMELSSLRSEDTAVYYCARWGYYGSPLYYFDYWGQGTLVTVSS
VL: EIVLTQSPATLSLSPGERATLSCRASSRLIYMHWYQQKPGQAPRPLIYATSNLASGIPARFSGSGSGTDFTLTISSLEPEDFAVYYCQQWNSNPPTFGQGTKVEIKR
modifications: drug-linker -(Succinimid-3-yl-N)-CH2CH2CH2CH2CH2-C(=O)-DGGFG-(NH-DX) (exatecan) bound by thioether at reduced hinge disulfide cysteines (positions not given); average 6.6 drug molecules per antibody
Turning to B8, in test [4], the “IC50, anticellular effect (cell growth inhibition, CellTiter-Glo) on CEM_V1_3.1_2 cells” value was below 0.1 nM.
